Experimental findings from publication PMC5704897 (Molecular cell, 2006) are described below.

Where two headings read alike, the source gives them in different places.

As usually defined, the stoichiometry N is a count of units in the complex or per binding partner.

Common to all, as to experiment: native MS
Experiment [1] addresses His6-tagged kinase domain of B-Raf (human) (UniProt P15056).
The target of experiment [2] is human Cdc37 (human) (UniProt Q16543).
For experiment [3] the target is unchanged. The source holds these as a separate data set.
Experiment [4] deals with T1, human Cdc37 (human), Q16543.
T1 chain: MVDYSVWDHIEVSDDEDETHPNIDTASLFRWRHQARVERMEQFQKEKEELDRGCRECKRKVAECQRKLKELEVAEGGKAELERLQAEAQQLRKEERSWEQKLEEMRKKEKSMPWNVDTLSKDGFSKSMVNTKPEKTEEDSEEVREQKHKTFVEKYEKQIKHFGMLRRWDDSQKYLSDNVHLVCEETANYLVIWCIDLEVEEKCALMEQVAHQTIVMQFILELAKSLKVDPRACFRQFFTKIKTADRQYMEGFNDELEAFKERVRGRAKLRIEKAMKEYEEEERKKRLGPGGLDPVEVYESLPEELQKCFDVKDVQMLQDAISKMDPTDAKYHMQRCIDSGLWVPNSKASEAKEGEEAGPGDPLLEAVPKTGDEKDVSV
The settings on record: remark: other sources report otherwise.

Experiment [5] deals with His6-tagged kinase domain of B-Raf (human, UniProt P15056 457-717).
Sequence of His6-tagged kinase domain of B-Raf (P15056 457-717): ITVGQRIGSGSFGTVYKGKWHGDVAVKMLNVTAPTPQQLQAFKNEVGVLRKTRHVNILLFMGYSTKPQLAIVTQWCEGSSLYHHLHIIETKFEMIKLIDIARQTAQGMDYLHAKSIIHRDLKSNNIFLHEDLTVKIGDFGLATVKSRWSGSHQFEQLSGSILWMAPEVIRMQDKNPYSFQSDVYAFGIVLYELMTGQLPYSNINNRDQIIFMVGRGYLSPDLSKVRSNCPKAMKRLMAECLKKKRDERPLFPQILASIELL

Sequence of His6-tagged kinase domain of B-Raf (human) (P15056 457-717): as above

“Spodoptera frugiperda Hsp90 homologue (natural protein)” had a stoichiometry N (Hsp90 per B-Raf) in experiment [1] of 2. In addition, the stoichiometry N (Hsp90 per Cdc37) with human Cdc37 (human) [2] and in the experiment with human Cdc37 (human) [3] was 2 throughout.

B1: human Cdc37, Q16543 1-378 (natural protein)
chain: MVDYSVWDHIEVSDDEDETHPNIDTASLFRWRHQARVERMEQFQKEKEELDRGCRECKRKVAECQRKLKELEVAEGGKAELERLQAEAQQLRKEERSWEQKLEEMRKKEKSMPWNVDTLSKDGFSKSMVNTKPEKTEEDSEEVREQKHKTFVEKYEKQIKHFGMLRRWDDSQKYLSDNVHLVCEETANYLVIWCIDLEVEEKCALMEQVAHQTIVMQFILELAKSLKVDPRACFRQFFTKIKTADRQYMEGFNDELEAFKERVRGRAKLRIEKAMKEYEEEERKKRLGPGGLDPVEVYESLPEELQKCFDVKDVQMLQDAISKMDPTDAKYHMQRCIDSGLWVPNSKASEAKEGEEAGPGDPLLEAVPKTGDEKDVSV
modifications: here or on the partner: phosphoserine at 13 (pSer 13); phosphoserine at 13 (pSer 13)
In turn, B1 displayed a stoichiometry N (Cdc37 chains in the oligomer) in experiment [4] of 2.

B2: human Cdc37 (natural protein, UniProt Q16543 1-378, looked up)
chain: MVDYSVWDHIEVSDDEDETHPNIDTASLFRWRHQARVERMEQFQKEKEELDRGCRECKRKVAECQRKLKELEVAEGGKAELERLQAEAQQLRKEERSWEQKLEEMRKKEKSMPWNVDTLSKDGFSKSMVNTKPEKTEEDSEEVREQKHKTFVEKYEKQIKHFGMLRRWDDSQKYLSDNVHLVCEETANYLVIWCIDLEVEEKCALMEQVAHQTIVMQFILELAKSLKVDPRACFRQFFTKIKTADRQYMEGFNDELEAFKERVRGRAKLRIEKAMKEYEEEERKKRLGPGGLDPVEVYESLPEELQKCFDVKDVQMLQDAISKMDPTDAKYHMQRCIDSGLWVPNSKASEAKEGEEAGPGDPLLEAVPKTGDEKDVSV
modifications: phosphoserine at 13 (pSer 13)
Regarding B2, the “stoichiometry N” value in experiment [5] worked out at 1 Cdc37 per B-Raf.
